Data taken from article PMC11490872, “Drug-resistant menin variants retain high binding affinity and interactions with MLL1” (The Journal of Biological Chemistry, 2024).
Substitutions are numbered along the chain they refer to. Read-outs that look alike come from different tables or passages of the source. Blank lines part the entries; values can stand above or below the molecule they belong to.

Legend:
[1] = biological target: T1, menin^WT bound to FLSN-MLL1^4-43 (Homo sapiens, UniProt O00255); assay: FP competition, displacement of FLSN-MLL1^4-43 from menin^WT; assay type: binding
T1 construct: Full-length human menin was expressed in BL21(DE3) cells; thioredoxin-His6 (cleaved yes); made in house; host or cells: E. coli BL21(DE3); probe peptide from GenScript
T1 sequence (O00255 1-610): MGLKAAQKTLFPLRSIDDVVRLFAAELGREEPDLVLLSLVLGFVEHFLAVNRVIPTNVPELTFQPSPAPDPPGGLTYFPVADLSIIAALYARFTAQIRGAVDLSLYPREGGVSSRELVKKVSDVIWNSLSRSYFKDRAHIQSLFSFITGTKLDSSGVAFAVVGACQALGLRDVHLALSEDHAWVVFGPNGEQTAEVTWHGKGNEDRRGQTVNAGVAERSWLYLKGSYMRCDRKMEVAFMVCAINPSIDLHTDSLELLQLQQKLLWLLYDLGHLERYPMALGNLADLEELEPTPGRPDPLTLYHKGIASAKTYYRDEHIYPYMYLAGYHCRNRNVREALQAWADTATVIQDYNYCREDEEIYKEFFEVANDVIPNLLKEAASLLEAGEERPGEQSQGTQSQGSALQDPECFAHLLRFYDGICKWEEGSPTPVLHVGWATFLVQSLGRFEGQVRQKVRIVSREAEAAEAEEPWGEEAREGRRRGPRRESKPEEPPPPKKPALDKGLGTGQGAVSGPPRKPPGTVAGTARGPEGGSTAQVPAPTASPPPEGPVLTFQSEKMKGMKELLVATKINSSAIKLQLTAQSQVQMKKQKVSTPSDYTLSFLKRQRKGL
Description: (§1) FP competition experiments used FLSN-MLL1^4-43 at 4 nM and menin at 4 nM against varying concentrations of unlabeled MLL1 peptides in FP buffer for IC50 determination. Protein-peptide complexes were incubated for 1 h before unlabeled peptide competitors were added to ensure complete binding. Unlabeled peptide competitors were incubated with the protein-peptide complexes for 3 h before measurement using the PHERAstar microplate reader ([25]). Experiments with Revumenib were run with the same steps and conditions but used 5% DMSO in the final solution. Kd and IC50 values were calculated using GraphPad Prism 10 by plotting mP values measured for each protein/MLL1 peptide or Revumenib as a function of protein/MLL1 peptide (or Revumenib) concentration ([25]). All FP binding and competition experiments were run in triplicate.

[2] = biological target: T2, menin^G331R bound to FLSN-MLL1^4-43 (Homo sapiens, UniProt O00255, G326R); assay: FP competition, displacement of FLSN-MLL1^4-43 from menin^G331R; assay type: binding
T2 construct: The gene encoding full-length human menin was cloned into a pET32a expression vector; thioredoxin-His6 (cleaved yes); made in house; host or cells: E. coli BL21(DE3); probe peptide from GenScript
T2 sequence (O00255 1-610 G326R): T1 sequence (O00255 1-610) with G326R
Description: as §1

menin T349M = test system: menin T349M; set-up: method as in PMID 36922589; conditions: versus wild-type menin; cited from earlier work
menin^M327I = biological target: T3, menin^M327I (Homo sapiens, UniProt O00255, M322I); assay: ITC binding of MLL1 fragments to menin^M327I
T3 construct: The gene encoding full-length human menin was cloned into a pET32a expression vector; thioredoxin-His6 (cleaved yes); made in house; host or cells: E. coli BL21(DE3)
T3 sequence (O00255 1-610 M322I): T1 sequence (O00255 1-610) with M322I
Description: Menin and MLL1 fragments were dialyzed at 4 °C against a 50 mM sodium phosphate pH 7.5, 50 mM NaCl, 1 mM TCEP buffer, and degassed prior to measurement. The titrations were performed using the VP-ITC system (MicroCal) at 25 °C. The calorimetric cell, which contained menin (concentrations in the 5–10 μM range), was titrated with the MLL1^160 and MLL1^4-15 derived peptides (concentration range 40–100 μM) injected in 10-μL aliquots. Data was analyzed using Origin 7.0 (OriginLab) to obtain Kd, stoichiometry, entropy, and enthalpy ([2]). Experiments with WT, M327I, T349M, and G331R menin and MLL1^160 or MLL1^4-15 were run in duplicate. Experiments with G331D menin and MLL1^160 were run in duplicate while experiments with G331D and MLL1^4-15 were run in quadruplicate.

[3] = FP competition with MLL1 fragments, 3 h incubation, N = 3, Fig. 3B, read-out: WT IC50
[4] = FP competition with MLL1 fragments, 3 h incubation, N = 3, Fig. 3B, read-out: G331R IC50

IC50 [1, 3]: 1.6 ± 0.7 nM | IC50 [2, 4]: 3.1 ± 0.7 nM
Molecule: MLL1^46: recombinant MLL1 fragment spanning amino acids 1–46, containing MBM1 and MBM2 (MAHSARWRFPARPGTTGGGGGGGRRGLGGAPRQRVPALLLPPGPPV; The printed 'Cys2' is Cys5 in the entry (peptide S4-A5-R6); Trx-His6 tag cl)

IC50 ([1]; FP competition, 5% DMSO, 3 h, N = 3, Fig. 4A, read-out: IC50 (nM), menin variant WT): 5.7 nM | IC50 ([2]; FP competition, 5% DMSO, 3 h, N = 3, Fig. 4A, read-out: IC50 (nM), menin variant G331R): 30 ± 2.5 nM | reduction of activity against G331R ([2]; versus wild-type IC50): 5 fold
Molecule: CCN(C(=O)c1cc(F)ccc1Oc1cncnc1N1CC2(CCN(C[C@H]3CC[C@H](NS(=O)(=O)CC)CC3)CC2)C1)C(C)C [Revumenib, reference compound]
reduction of binding by T349M mutation (menin T349M): 111 fold

Kd (menin^M327I; ITC summary Fig. 1B, values marked *, n = 2, read-out: M327I Kd (nM), ITC): 2.2 ± 0.6 nM | Kd (menin^M327I; ITC, representative binding isotherm Fig. 1A, 25 °C, read-out: Kd): 2.2 ± 0.6 nM | IC50 [1, 3]: 4.1 ± 1.3 nM | IC50 [2, 4]: 8 ± 0.5 nM
B1: MLL1^160: N-terminal 160 amino acids of human MLL1, Cys2 mutated to alanine, recombinant (protein)
chain: MAHSARWRFPARPGTTGGGGGGGRRGLGGAPRQRVPALLLPPGPPVGGGGPGAPPSPPAVAAAAAAAGSSGAGVPGGAAAASAASSSSASSSSSSSSSASSGPALLRVGPGFDAALQVSAAIGTNLRRFRAVFGESGGGGGSGEDEQFLGFGSDEEVRVR
modifications: The printed 'Cys2' is the single N-terminal cysteine, Cys5 in the entry (peptide S4-A5-R6); Trx-His6 tag cleaved
